The target in assay [1] is IgG (Gammanorm). In words: SPR (Biacore), variant amine-coupled to CM5 chip, Gammanorm as analyte, steady state affinity fit.
For assay [2], the target named is IgG (Gammanorm). The experiment in a line: SPR (Biacore), variant amine-coupled to CM5 chip, Gammanorm as analyte, 1:1 kinetic fit.

B1: Protein L variant pAM249 (domain B1-2; H10, H45, Y60) (protein)
chain: SEEEVTIKAHLIFANGSTQTAEFKGTFEKATSEAYAYADTLKKDHGEYTVDVADKGYTLYIKFAGKEKTPEE
In the case of B1, the results for the Kd with IgG (Gammanorm) [1] and in the assay with IgG (Gammanorm) [2] were 79 nM and 29 nM, respectively.

B2: Protein L variant pAM235 (domain B1-1; H10, H45, Q60) (protein)
chain: SEEEVTIKAHLIFANGSTQTAEFKGTFEKATSEAYAYADTLKKDHGEYTVDVADKGYTLQIKFAGKEKTPEE
In the case of B2, the results for the Kd with IgG (Gammanorm) [1] and in the assay with IgG (Gammanorm) [2] were 101 nM and 42 nM, respectively.

B3: Protein L variant pAM247 (domain C4-1; H10, H45, Q60) (protein)
chain: PKEEVTIKVHLIFADGKTQTAEFKGTFEEATAEAYRYADLLAKVHGEYTADLEDGGYTIQIKFAGKEQPGENPG
For the molecule B3, the values for the Kd with IgG (Gammanorm) [1] and in the assay with IgG (Gammanorm) [2] were 38 nM and 9 nM, respectively.

B4: Protein L variant pAM261 (domain C4-2; H10, H45, Y60) (protein)
chain: PKEEVTIKVHLIFADGKTQTAEFKGTFEEATAEAYRYADLLAKVHGEYTADLEDGGYTIYIKFAGKEQPGENPG
B4: the Kd amounted to 43 nM in the assay with IgG (Gammanorm) [1] and 12 nM with IgG (Gammanorm) [2].

B5: Protein L variant pAM244 (domain C2b-1; H10, H45, Q60) (protein)
chain: PKEEVTIKVHLIFADGKTQTAEFKGTFEEATAKAYAYADLLAKEHGEYTADLEDGGYTIQIKFAGKETPETPEE
For the molecule B5, the Kd with IgG (Gammanorm) [1] was found to be 50 nM; with IgG (Gammanorm) [2] it was 18 nM.

B6: Protein L variant pAM262 (domain D1-2; H10, H45, Y60) (protein)
chain: PKEEVTIKAHLIFADGKTQTAEFKGTFEEATAEAYRYADLLAKVHGEYTADLEDGGYTIYIKFAGKEQPGEN
Take B6: the values for the Kd with IgG (Gammanorm) [1] and with IgG (Gammanorm) [2] were 48 nM and 11 nM, respectively.

B7: Protein L variant pAM248 (domain D1-1; H10, H45, Q60) (protein)
chain: PKEEVTIKAHLIFADGKTQTAEFKGTFEEATAEAYRYADLLAKVHGEYTADLEDGGYTIQIKFAGKEQPGEN
In the case of B7, the Kd was determined as 56 nM with IgG (Gammanorm) [1] and 16 nM with IgG (Gammanorm) [2].

B8: Protein L variant pAM246 (domain C3b-1; H10, H45, Q60) (protein)
chain: PKEEVTIKVHLIFADGKIQTAEFKGTFEEATAKAYAYADLLAKEHGEYTADLEDGGYTIQIKFAGKETPETPEE
On to B8, for which the Kd was 49 nM with IgG (Gammanorm) [1] and 17 nM in the assay with IgG (Gammanorm) [2].

B9: Protein L variant pAM243 (domain C2-1; H10, H45, Q60) (protein)
chain: PKEEVTIKVHLIFADGKTQTAEFKGTFEEATAKAYAYADLLAKEHGEYTADLEDGGNTIQIKFAGKETPETPEE
Take B9: the results for the Kd with IgG (Gammanorm) [1] and with IgG (Gammanorm) [2] were 83 nM and 39 nM, respectively.

B10: Protein L variant pAM257 (domain C2-2; H10, H45, Y60) (protein)
chain: PKEEVTIKVHLIFADGKTQTAEFKGTFEEATAKAYAYADLLAKEHGEYTADLEDGGNTIYIKFAGKETPETPEE
With B10, the Kd turned out to be 98 nM in the assay with IgG (Gammanorm) [1] and 47 nM with IgG (Gammanorm) [2].

B11: Protein L variant pAM245 (domain C3-1; H10, H45, Q60) (protein)
chain: PKEEVTIKVHLIFADGKIQTAEFKGTFEEATAKAYAYANLLAKEHGEYTADLEDGGNTIQIKFAGKETPETPEE
With B11, the values for the Kd with IgG (Gammanorm) [1] and with IgG (Gammanorm) [2] were 134 nM and 65 nM, respectively.

B12: Protein L variant pAM259 (domain C3-2; H10, H45, Y60) (protein)
chain: PKEEVTIKVHLIFADGKIQTAEFKGTFEEATAKAYAYANLLAKEHGEYTADLEDGGNTIYIKFAGKETPETPEE
For B12, the results for the Kd with IgG (Gammanorm) [1] and with IgG (Gammanorm) [2] were 120 nM and 55 nM, respectively.

B13: Protein L variant pAM260 (domain C3b-2; H10, H45, Y60) (protein)
chain: PKEEVTIKVHLIFADGKIQTAEFKGTFEEATAKAYAYADLLAKEHGEYTADLEDGGYTIYIKFAGKETPETPEE
Take B13: the results for the Kd with IgG (Gammanorm) [1] and in the assay with IgG (Gammanorm) [2] were 51 nM and 18 nM, respectively.

B14: Protein L variant pAM258 (domain C2b-2; H10, H45, Y60) (protein)
chain: PKEEVTIKVHLIFADGKTQTAEFKGTFEEATAKAYAYADLLAKEHGEYTADLEDGGYTIYIKFAGKETPETPEE
In the case of B14, the results for the Kd with IgG (Gammanorm) [1] and with IgG (Gammanorm) [2] were 45 nM and 17 nM, respectively.

B15: Protein L variant pAM253 (domain B4-2; H10, H45, Y60) (protein)
chain: PKEEVTIKAHLIYADGKTQTAEFKGTFAEATAEAYRYADLLAKEHGKYTADLEDGGYTIYIRFAGKKVDEKPEE
For the molecule B15, the Kd was 54 nM with IgG (Gammanorm) [1] and 14 nM in the assay with IgG (Gammanorm) [2].

B16: Protein L variant pAM239 (domain B4-1; H10, H45, Q60) (protein)
chain: PKEEVTIKAHLIYADGKTQTAEFKGTFAEATAEAYRYADLLAKEHGKYTADLEDGGYTIQIRFAGKKVDEKPEE
With B16, the Kd with IgG (Gammanorm) [1] was found to be 60 nM; in the assay with IgG (Gammanorm) [2] it was 17 nM.

B17: Protein L variant pAM251 (domain B2-2; H10, H45, Y60) (protein)
chain: PKEEVTIKAHLIYADGKTQTAEFKGTFEEAAAEAYRYADALKKDHGEYTVDVADKGYTLYIKFAGKEKTPEE
With B17, the Kd with IgG (Gammanorm) [1] was determined as 55 nM; with IgG (Gammanorm) [2], 20 nM.

B18: Protein L variant pAM237 (domain B2-1; H10, H45, Q60) (protein)
chain: PKEEVTIKAHLIYADGKTQTAEFKGTFEEAAAEAYRYADALKKDHGEYTVDVADKGYTLQIKFAGKEKTPEE
In the case of B18, the Kd with IgG (Gammanorm) [1] amounted to 72 nM; in the assay with IgG (Gammanorm) [2], 27 nM.

B19: Protein L variant pAM252 (domain B3-2; H10, H45, Y60) (protein)
chain: PKEEVTIKAHLIYADGKTQTAEFKGTFEEATAEAYRYADLLAKEHGKYTVDVADKGYTLYIKFAGKEKTPEE
Regarding B19, the Kd was 69 nM with IgG (Gammanorm) [1] and 16 nM with IgG (Gammanorm) [2].

B20: Protein L variant pAM238 (domain B3-1; H10, H45, Q60) (protein)
chain: PKEEVTIKAHLIYADGKTQTAEFKGTFEEATAEAYRYADLLAKEHGKYTVDVADKGYTLQIKFAGKEKTPEE
Take B20: the Kd in the assay with IgG (Gammanorm) [1] amounted to 82 nM; with IgG (Gammanorm) [2], 25 nM.

For the origin of these results see patent US20250196025A1.
